This data set deals with the molecule itself. Briefly: SEC. In general terms: SEC sorts molecules by how far they enter the pores of the column.

B1: NSF K266A mutant with His6 at the amino terminus and a myc epitope at the carboxy terminus (natural protein, UniProt P18708 1-744, looked up)
chain: MAGRSMQAARCPTDELSLSNCAVVSEKDYQSGQHVIVRTSPNHKYIFTLRTHPSVVPGSVAFSLPQRKWAGLSIGQEIEVALYSFDKAKQCIGTMTIEIDFLQKKNIDSNPYDTDKMAAEFIQQFNNQAFSVGQQLVFSFNDKLFGLLVKDIEAMDPSILKGEPASGKRQKIEVGLVVGNSQVAFEKAENSSLNLIGKAKTKENRQSIINPDWNFEKMGIGGLDKEFSDIFRRAFASRVFPPEIVEQMGCKHVKGILLYGPPGCGATLLARQIGKMLNAREPKVVNGPEILNKYVGESEANIRKLFADAEEEQRRLGANSGLHIIIFDEIDAICKQRGSMAGSTGVHDTVVNQLLSKIDGVEQLNNILVIGMTNRPDLIDEALLRPGRLEVKMEIGLPDEKGRLQILHIHTARMRGHQLLSADVDIKELAVETKNFSGAELEGLVRAAQSTAMNRHIKASTKVEVDMEKAESLQVTRGDFLASLENDIKPAFGTNQEDYASYIMNGIIKWGDPVTRVLDDGELLVQQTKNSDRTPLVSVLLEGPPHSGKTALAAKIAEESNFPFIKICSPDKMIGFSETAKCQAMKKIFDDAYKSQLSCVVVDDIERLLDYVPIGPRFSNLVLQALLVLLKKAPPQGRKLLIIGTTSRKDVLQEMEMLNAFSTTIHVPNIATGEQLLEALELLGNFKDKERTTIAQQVKGKKVWIGIKKLLMLIEMSLQMDPEYRVRKFLALLREEGASPLDFD
As to B1, the binding result is recorded as “binds”.

B2: NSF E329Q mutant (natural protein, UniProt P18708 1-744, looked up)
chain: MAGRSMQAARCPTDELSLSNCAVVSEKDYQSGQHVIVRTSPNHKYIFTLRTHPSVVPGSVAFSLPQRKWAGLSIGQEIEVALYSFDKAKQCIGTMTIEIDFLQKKNIDSNPYDTDKMAAEFIQQFNNQAFSVGQQLVFSFNDKLFGLLVKDIEAMDPSILKGEPASGKRQKIEVGLVVGNSQVAFEKAENSSLNLIGKAKTKENRQSIINPDWNFEKMGIGGLDKEFSDIFRRAFASRVFPPEIVEQMGCKHVKGILLYGPPGCGKTLLARQIGKMLNAREPKVVNGPEILNKYVGESEANIRKLFADAEEEQRRLGANSGLHIIIFDQIDAICKQRGSMAGSTGVHDTVVNQLLSKIDGVEQLNNILVIGMTNRPDLIDEALLRPGRLEVKMEIGLPDEKGRLQILHIHTARMRGHQLLSADVDIKELAVETKNFSGAELEGLVRAAQSTAMNRHIKASTKVEVDMEKAESLQVTRGDFLASLENDIKPAFGTNQEDYASYIMNGIIKWGDPVTRVLDDGELLVQQTKNSDRTPLVSVLLEGPPHSGKTALAAKIAEESNFPFIKICSPDKMIGFSETAKCQAMKKIFDDAYKSQLSCVVVDDIERLLDYVPIGPRFSNLVLQALLVLLKKAPPQGRKLLIIGTTSRKDVLQEMEMLNAFSTTIHVPNIATGEQLLEALELLGNFKDKERTTIAQQVKGKKVWIGIKKLLMLIEMSLQMDPEYRVRKFLALLREEGASPLDFD
Consider B2, for which the binding result is on record as “binds”.

B3: NSF D604Q mutant (natural protein, UniProt P18708 1-744, looked up)
chain: MAGRSMQAARCPTDELSLSNCAVVSEKDYQSGQHVIVRTSPNHKYIFTLRTHPSVVPGSVAFSLPQRKWAGLSIGQEIEVALYSFDKAKQCIGTMTIEIDFLQKKNIDSNPYDTDKMAAEFIQQFNNQAFSVGQQLVFSFNDKLFGLLVKDIEAMDPSILKGEPASGKRQKIEVGLVVGNSQVAFEKAENSSLNLIGKAKTKENRQSIINPDWNFEKMGIGGLDKEFSDIFRRAFASRVFPPEIVEQMGCKHVKGILLYGPPGCGKTLLARQIGKMLNAREPKVVNGPEILNKYVGESEANIRKLFADAEEEQRRLGANSGLHIIIFDEIDAICKQRGSMAGSTGVHDTVVNQLLSKIDGVEQLNNILVIGMTNRPDLIDEALLRPGRLEVKMEIGLPDEKGRLQILHIHTARMRGHQLLSADVDIKELAVETKNFSGAELEGLVRAAQSTAMNRHIKASTKVEVDMEKAESLQVTRGDFLASLENDIKPAFGTNQEDYASYIMNGIIKWGDPVTRVLDDGELLVQQTKNSDRTPLVSVLLEGPPHSGKTALAAKIAEESNFPFIKICSPDKMIGFSETAKCQAMKKIFDDAYKSQLSCVVVDQIERLLDYVPIGPRFSNLVLQALLVLLKKAPPQGRKLLIIGTTSRKDVLQEMEMLNAFSTTIHVPNIATGEQLLEALELLGNFKDKERTTIAQQVKGKKVWIGIKKLLMLIEMSLQMDPEYRVRKFLALLREEGASPLDFD
Take B3: the binding result is reported as “binds”.

B4: NSF double hydrolysis mutant E329/D604Q (natural protein, UniProt P18708 1-744, looked up)
chain: MAGRSMQAARCPTDELSLSNCAVVSEKDYQSGQHVIVRTSPNHKYIFTLRTHPSVVPGSVAFSLPQRKWAGLSIGQEIEVALYSFDKAKQCIGTMTIEIDFLQKKNIDSNPYDTDKMAAEFIQQFNNQAFSVGQQLVFSFNDKLFGLLVKDIEAMDPSILKGEPASGKRQKIEVGLVVGNSQVAFEKAENSSLNLIGKAKTKENRQSIINPDWNFEKMGIGGLDKEFSDIFRRAFASRVFPPEIVEQMGCKHVKGILLYGPPGCGKTLLARQIGKMLNAREPKVVNGPEILNKYVGESEANIRKLFADAEEEQRRLGANSGLHIIIFDQIDAICKQRGSMAGSTGVHDTVVNQLLSKIDGVEQLNNILVIGMTNRPDLIDEALLRPGRLEVKMEIGLPDEKGRLQILHIHTARMRGHQLLSADVDIKELAVETKNFSGAELEGLVRAAQSTAMNRHIKASTKVEVDMEKAESLQVTRGDFLASLENDIKPAFGTNQEDYASYIMNGIIKWGDPVTRVLDDGELLVQQTKNSDRTPLVSVLLEGPPHSGKTALAAKIAEESNFPFIKICSPDKMIGFSETAKCQAMKKIFDDAYKSQLSCVVVDQIERLLDYVPIGPRFSNLVLQALLVLLKKAPPQGRKLLIIGTTSRKDVLQEMEMLNAFSTTIHVPNIATGEQLLEALELLGNFKDKERTTIAQQVKGKKVWIGIKKLLMLIEMSLQMDPEYRVRKFLALLREEGASPLDFD
For the protein B4, the binding result is given as “binds”.

B5: NSF K549A mutant (natural protein, UniProt P18708 1-744, looked up)
chain: MAGRSMQAARCPTDELSLSNCAVVSEKDYQSGQHVIVRTSPNHKYIFTLRTHPSVVPGSVAFSLPQRKWAGLSIGQEIEVALYSFDKAKQCIGTMTIEIDFLQKKNIDSNPYDTDKMAAEFIQQFNNQAFSVGQQLVFSFNDKLFGLLVKDIEAMDPSILKGEPASGKRQKIEVGLVVGNSQVAFEKAENSSLNLIGKAKTKENRQSIINPDWNFEKMGIGGLDKEFSDIFRRAFASRVFPPEIVEQMGCKHVKGILLYGPPGCGKTLLARQIGKMLNAREPKVVNGPEILNKYVGESEANIRKLFADAEEEQRRLGANSGLHIIIFDEIDAICKQRGSMAGSTGVHDTVVNQLLSKIDGVEQLNNILVIGMTNRPDLIDEALLRPGRLEVKMEIGLPDEKGRLQILHIHTARMRGHQLLSADVDIKELAVETKNFSGAELEGLVRAAQSTAMNRHIKASTKVEVDMEKAESLQVTRGDFLASLENDIKPAFGTNQEDYASYIMNGIIKWGDPVTRVLDDGELLVQQTKNSDRTPLVSVLLEGPPHSGATALAAKIAEESNFPFIKICSPDKMIGFSETAKCQAMKKIFDDAYKSQLSCVVVDDIERLLDYVPIGPRFSNLVLQALLVLLKKAPPQGRKLLIIGTTSRKDVLQEMEMLNAFSTTIHVPNIATGEQLLEALELLGNFKDKERTTIAQQVKGKKVWIGIKKLLMLIEMSLQMDPEYRVRKFLALLREEGASPLDFD
Regarding B5, the binding result is recorded as “binds”.

The values are drawn from article PMC2120109 (The Journal of Cell Biology, 1994).
